Earlier results in publication PMC8894380.

Target: PRPF8 Jab1 (Saccharomyces cerevisiae) (UniProt P33334)
Sequence (P33334 2148-2395): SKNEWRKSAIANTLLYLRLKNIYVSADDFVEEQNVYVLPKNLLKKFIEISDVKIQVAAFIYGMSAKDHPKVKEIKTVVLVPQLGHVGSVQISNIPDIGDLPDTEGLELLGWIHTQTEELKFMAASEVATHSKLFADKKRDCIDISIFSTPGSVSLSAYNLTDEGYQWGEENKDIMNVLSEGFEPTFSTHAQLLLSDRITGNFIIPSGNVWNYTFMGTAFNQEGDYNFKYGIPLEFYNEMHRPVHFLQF

Chain of BRR2 helicase region (P32639 442-2163): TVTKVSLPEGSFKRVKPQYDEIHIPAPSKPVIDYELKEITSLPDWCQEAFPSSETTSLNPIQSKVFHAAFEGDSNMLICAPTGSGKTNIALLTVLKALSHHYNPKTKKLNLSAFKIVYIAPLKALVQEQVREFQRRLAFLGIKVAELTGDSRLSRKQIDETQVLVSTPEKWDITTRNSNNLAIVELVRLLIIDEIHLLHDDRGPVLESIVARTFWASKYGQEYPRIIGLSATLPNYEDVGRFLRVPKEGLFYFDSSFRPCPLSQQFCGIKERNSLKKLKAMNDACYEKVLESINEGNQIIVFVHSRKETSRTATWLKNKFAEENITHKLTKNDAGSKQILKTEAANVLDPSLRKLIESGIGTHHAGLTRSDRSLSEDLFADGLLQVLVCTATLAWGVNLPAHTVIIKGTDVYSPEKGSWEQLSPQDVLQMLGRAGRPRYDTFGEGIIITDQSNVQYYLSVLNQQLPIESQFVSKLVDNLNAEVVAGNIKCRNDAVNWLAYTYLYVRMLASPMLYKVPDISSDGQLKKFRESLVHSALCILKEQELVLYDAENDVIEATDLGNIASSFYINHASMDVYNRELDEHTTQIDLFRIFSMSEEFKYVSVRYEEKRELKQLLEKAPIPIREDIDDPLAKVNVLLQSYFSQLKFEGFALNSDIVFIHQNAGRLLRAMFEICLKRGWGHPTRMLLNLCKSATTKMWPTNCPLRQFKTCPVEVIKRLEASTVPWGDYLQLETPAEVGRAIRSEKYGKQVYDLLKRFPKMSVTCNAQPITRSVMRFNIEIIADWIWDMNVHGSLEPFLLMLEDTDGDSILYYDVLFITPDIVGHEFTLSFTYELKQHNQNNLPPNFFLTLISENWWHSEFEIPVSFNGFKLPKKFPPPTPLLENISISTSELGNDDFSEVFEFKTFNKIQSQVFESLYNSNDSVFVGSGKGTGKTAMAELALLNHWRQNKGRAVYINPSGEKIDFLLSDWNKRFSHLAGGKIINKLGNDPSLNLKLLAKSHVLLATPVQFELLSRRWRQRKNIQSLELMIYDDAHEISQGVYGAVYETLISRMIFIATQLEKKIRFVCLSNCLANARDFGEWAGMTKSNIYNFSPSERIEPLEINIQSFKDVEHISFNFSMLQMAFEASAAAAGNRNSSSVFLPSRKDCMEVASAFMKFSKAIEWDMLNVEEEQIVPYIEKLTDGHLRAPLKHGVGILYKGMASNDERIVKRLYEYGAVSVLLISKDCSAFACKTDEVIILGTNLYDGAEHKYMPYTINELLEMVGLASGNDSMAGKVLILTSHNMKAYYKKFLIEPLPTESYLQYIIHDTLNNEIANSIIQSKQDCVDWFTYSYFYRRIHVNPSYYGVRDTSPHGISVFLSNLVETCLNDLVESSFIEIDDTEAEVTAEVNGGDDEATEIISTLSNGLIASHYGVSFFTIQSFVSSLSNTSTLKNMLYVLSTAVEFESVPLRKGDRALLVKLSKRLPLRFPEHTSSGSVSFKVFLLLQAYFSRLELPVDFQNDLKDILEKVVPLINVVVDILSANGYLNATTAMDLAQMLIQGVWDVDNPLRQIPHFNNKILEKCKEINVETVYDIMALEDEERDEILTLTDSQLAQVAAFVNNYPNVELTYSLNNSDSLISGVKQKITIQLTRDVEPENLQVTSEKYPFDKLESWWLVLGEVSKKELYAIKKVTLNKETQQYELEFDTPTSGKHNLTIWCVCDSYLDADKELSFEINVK

BRR2 helicase region (from UniProt P32639)
Kd: 8 nM
